How the values were obtained:
[1] = target: T1, PD-1 on PD-1-overexpressing CHO/PD-1 cells (GenScript, Cat. No. M00529) (UniProt Q15116 25-288, limits assumed); assay: flow cytometry, association of PKH26-stained CHO/PD-1 and CFSE-stained SK-BR-3 cells
T1 construct: whole, on cells

[2] = target: T2, Recombinant human PD-1 (Beijing Yiqiao Shenzhou, Cat. No. 10377-H08H) (human, UniProt Q15116 25-167); assay: ELISA, antigen coated at 1 ug/mL
T2 construct: Bought protein coated on the ELISA plate
Experimental: The coating was performed at 4° C. overnight. […] Color development was terminated by adding 100 μL/well of 1 M H₂SO₄. The absorbance at 450 nm was read on a microplate reader.

T1 sequence (Q15116 25-288 limits assumed, one chain of several): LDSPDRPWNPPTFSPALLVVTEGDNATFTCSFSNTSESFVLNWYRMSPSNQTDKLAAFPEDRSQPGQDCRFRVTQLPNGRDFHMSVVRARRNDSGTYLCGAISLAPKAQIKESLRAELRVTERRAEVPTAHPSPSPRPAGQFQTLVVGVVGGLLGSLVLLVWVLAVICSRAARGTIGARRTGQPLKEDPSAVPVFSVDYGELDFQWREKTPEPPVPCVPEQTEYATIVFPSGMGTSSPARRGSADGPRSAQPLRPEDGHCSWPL
T2 sequence (Q15116 25-167 limits assumed): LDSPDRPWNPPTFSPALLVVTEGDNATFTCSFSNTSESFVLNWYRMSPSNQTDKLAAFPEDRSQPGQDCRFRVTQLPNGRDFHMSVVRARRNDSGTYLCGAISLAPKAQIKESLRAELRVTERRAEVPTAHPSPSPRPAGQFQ

- binding result [1]: binds
- binding result [2]: binds
B1: anti-PD-1pem/anti-HER2 heterodimeric bispecific antibody (bispecific antibody, human IgG1, kappa)
heavy 1: not shown
light 1: EIVLTQSPATLSLSPGERATLSCRASKGVSTSGYSYLHWYQQKPGQAPRLLIYLASYLESGVPARFSGSGSGTDFTLTISSLEPEDFAVYYCQHSRDLPLTFGGGTKVEIKRTVAAPSVFIFPPSDEQLKSGTASVVCLLNNFYPREAKVQWKVDNALQSGNSQESVTEQDSKDSTYSLSSTLTLSKADYEKHKVYACEVTHQGLSSPVTKSFNRGEC
heavy 2: not shown
light 2: not shown
notes: also called PD-1/HER2 heterodimeric antibody; PD-1/HER2 heterodimer

From patent publication US20190367633A1 (BEIJING HANMI PHARMACEUTICAL, published 2019)
